The target of assay [1] is HLA-DR4w15 (DRB1*0405) (human).
The target in assay [2] is HLA-DR2w2β2 (DRB5*0101) (human).
In assay [3] the target is HLA-DR3 (DRB1*0301) (human).
Assay [4] concerns the target HLA-A*1101 (Human).
In assay [5] the target is HLA-DR1 (DRB1*0101) (human).
Assay [6] deals with T1, HLA-DR8w2 (DRB1*0802) (human).
T1 chain 1: not shown
T1 chain 2: not shown

The target of assay [7] is T2, HLA-DR5w12 (DRB1*1201) (human).
T2 chain 1: not shown
T2 chain 2: not shown

The target in assay [8] is T3, HLA-DR7 (DRB1*0701) (human).
T3 chain 1: not shown
T3 chain 2: not shown

For assay [9], the target named is T4, HLA-DRw53 (DRB4*0101) (human).
T4 chain 1: not shown
T4 chain 2: not shown

In assay [10] the target is HLA-A*1101 (Human). The source holds these as a separate data set.
For assay [11], the target named is T5, HLA-DR9 (DRB1*0901) (human).
T5 chain 1: not shown
T5 chain 2: not shown

Assay [12] addresses T6, HLA-DR6w19 (DRB1*1302) (human).
T6 chain 1: not shown
T6 chain 2: not shown

In assay [13] the target is HLA-DR4w4 (DRB1*0401) (human).
The target in assay [14] is HLA-DR5w11 (DRB1*1101) (human).

Read-outs that look alike come from different tables or passages of the source.

B1: … (peptide)
peptide: ILSVFFLALFFIIFN
modifications: not checked
In the case of B1, the results for the binding affinity ratio (IC50 of standard peptide / IC50 of test peptide) in assay [1], in [2] and in assay [3] were -0.0009, 0.0091 and -0.0008, respectively.

B2: … (CSP 397) (peptide)
peptide: LDYENDIEK
modifications: not checked
Consider B2, for which, in the assay with HLA-A*1101 (Human) [4], the binding affinity ratio (IC50 of standard peptide / IC50 of test peptide) was determined as 0.0002.

B3: … (peptide)
peptide: LIDVHDLISDMIKKE
modifications: not checked
Turning to B3, the binding affinity ratio (IC50 of standard peptide / IC50 of test peptide) stood at 0.0076 in [1] and 0.01 in assay [3].

B4: … (CSP 85) (peptide)
peptide: NGREGKDEDK
modifications: not checked
Regarding B4, in the assay with HLA-A*1101 (Human) [4], the binding affinity ratio (IC50 of standard peptide / IC50 of test peptide) was found to be 0.0002.

B5: … (P. falciparum EXP, position 51) (peptide)
peptide: HDLISDMIKK
modifications: not checked
For the molecule B5, the binding affinity ratio (IC50 of standard peptide / IC50 of test peptide) with HLA-A*0301 (human) was found to be 0.0009.

B6: … (peptide)
peptide: LGNVKYLVIVFLIFF
modifications: not checked
On to B6, for which the binding affinity ratio (IC50 of standard peptide / IC50 of test peptide) was 0.0006 in assay [5] and -0.0008 in [3].

B7: … (Pf SSP2 517) (peptide)
peptide: AGGLALLACAGLAYK
modifications: not checked
Take B7: the binding affinity ratio (IC50 of standard peptide / IC50 of test peptide) is 0.0003 in [6], 0.0051 in assay [7], 0.0009 in [8] and -0.0005 in [9].

B8: … (P. falciparum EXP, position 15) (peptide)
peptide: IFNKESLAEK
modifications: not checked
Regarding B8, the binding affinity ratio (IC50 of standard peptide / IC50 of test peptide) with HLA-A*0301 (human) was 0.0005.

B9: … (CSP 82) (peptide)
peptide: NGDNGREGK
modifications: not checked
Consider B9, for which the binding affinity ratio (IC50 of standard peptide / IC50 of test peptide) with HLA-A*1101 (Human) [4] came to 0.0002.

B10: … (CSP 46) (peptide)
peptide: NLYNELEMNY
modifications: not checked
Consider B10, for which, in the assay with HLA-A*1101 (Human) [4], the binding affinity ratio (IC50 of standard peptide / IC50 of test peptide) was 0.0002.

B11: … (Pf CSP 96, A11 motif peptide) (peptide)
peptide: DGNNEDNEK
modifications: not checked
For the molecule B11, the binding affinity ratio (IC50 of standard peptide / IC50 of test peptide) with HLA-A*1101 (Human) [10] is 0.0002.

B12: … (Pf EXP 1) (peptide)
peptide: MKILSVFFLALFFII
modifications: not checked
Turning to B12, the binding affinity ratio (IC50 of standard peptide / IC50 of test peptide) in [6] came to 0.0023; in assay [7], 0.0023; in assay [8], 0.036; in assay [11], 0.006; in assay [12] it was 0.0019.

B13: … (P. falciparum EXP, position 66) (peptide)
peptide: EVNKRKSKY
modifications: not checked
As to B13, the binding affinity ratio (IC50 of standard peptide / IC50 of test peptide) in the assay with HLA-A*1101 (Human) [10] was found to be 0.0002.

B14: … (peptide)
peptide: VKYLVIVFLIFFDLF
modifications: not checked
In the case of B14, the figures for the binding affinity ratio (IC50 of standard peptide / IC50 of test peptide) in assay [5] and in [13] were 0.0001 and 0.003, respectively.

B15: … (Pf EXP 107) (peptide)
peptide: RHPFKIGSSDPADNA
modifications: not checked
With B15, the binding affinity ratio (IC50 of standard peptide / IC50 of test peptide) in assay [6] was 0.038; in assay [7], 0.0001; in assay [8], -0.0003; in assay [11], 0.095; in assay [12] it was 0.0003.

B16: … (Pf SSP2 227) (peptide)
peptide: IGPFMKAVCVEVEKT
modifications: not checked
B16: the binding affinity ratio (IC50 of standard peptide / IC50 of test peptide) was -0.0003 in assay [6]; 0.0038 in assay [7]; 0.0019 in [8]; 0.082 in [11]; 0.07 in assay [9]; 0.0003 in assay [12].

B17: … (CSP 31) (peptide)
peptide: NTRVLNELNY
modifications: not checked
With B17, in the assay with HLA-A*1101 (Human) [10], the binding affinity ratio (IC50 of standard peptide / IC50 of test peptide) came out at 0.0002.

B18: … (P. falciparum CSP, position 95) (peptide)
peptide: RDGNNEDNEK
modifications: not checked
As for B18, the binding affinity ratio (IC50 of standard peptide / IC50 of test peptide) in the assay with HLA-A*1101 (Human) [10] came to 0.0002.

B19: … (Pf EXP 47) (peptide)
peptide: LIDVHDLISDMIKKE
modifications: not checked
With B19, the binding affinity ratio (IC50 of standard peptide / IC50 of test peptide) in assay [6] turned out to be 0.0096; in assay [7], 0.0001; in [8] it was 0.01; in [11], 0.043; in assay [9] it was 0.094; in [12], 0.0004.

B20: … (peptide)
peptide: CGVWDEWSPCSVTCG
modifications: not checked
For the molecule B20, the binding affinity ratio (IC50 of standard peptide / IC50 of test peptide) in [5] is 0.0001; in assay [2], -0.0006; in assay [13], -0.0007; in [14] it was -0.0002.

B21: … (P. falciparum EXP, position 27) (peptide)
peptide: KGTGSGVSSK
modifications: not checked
Regarding B21, in the assay with HLA-A*0301 (human), the binding affinity ratio (IC50 of standard peptide / IC50 of test peptide) worked out at 0.0005.

B22: … (Pf SSP2 68) (peptide)
peptide: AVPLAMKLIQQLNLN
modifications: not checked
B22: the binding affinity ratio (IC50 of standard peptide / IC50 of test peptide) came out at 0.04 in assay [6], 0.13 in assay [7], 0.077 in assay [8] and 0.035 in assay [9].

B23: … (peptide)
peptide: CVEVEKTASCGVWDE
modifications: not checked
With B23, the binding affinity ratio (IC50 of standard peptide / IC50 of test peptide) in [1] was -0.0009; in assay [5], 0.0004; in assay [2], -0.0005; in assay [13], 0.0021; in assay [14] it was -0.0002.

B24: … (Pf CSP 377, A11 motif peptide) (peptide)
peptide: CGNGIQVRIK
modifications: not checked
Consider B24, for which the binding affinity ratio (IC50 of standard peptide / IC50 of test peptide) with HLA-A*1101 (Human) [10] is 0.0002.

B25: NDIEKKIK (CSP 401) (peptide)
peptide: NDIEKKICK
modifications: not checked
In the case of B25, in the assay with HLA-A*1101 (Human) [10], the binding affinity ratio (IC50 of standard peptide / IC50 of test peptide) came out at 0.0002.

B26: … (CSP 397) (peptide)
peptide: LDYENDIEKK
modifications: not checked
B26: in the assay with HLA-A*1101 (Human) [4], the binding affinity ratio (IC50 of standard peptide / IC50 of test peptide) came to 0.0002.

B27: … (P. falciparum EXP, position 51) (peptide)
peptide: HDLISDMIK
modifications: not checked
Regarding B27, the binding affinity ratio (IC50 of standard peptide / IC50 of test peptide) with HLA-A*0301 (human) was found to be 0.0001.

B28: … (Pf SSP2 153) (peptide)
peptide: ANQLVVILTDGIPDS
modifications: not checked
Consider B28, for which the binding affinity ratio (IC50 of standard peptide / IC50 of test peptide) in assay [6] was -0.0002; in assay [7], 0.0003; in assay [8] it was 0.0054; in [11] it was 0.042; in assay [12], 0.007.

B29: … (Pf SSP2 513) (peptide)
peptide: AGGIAGGLALLACAG
modifications: not checked
Consider B29, for which the binding affinity ratio (IC50 of standard peptide / IC50 of test peptide) in assay [6] was 0.0004; in assay [7], 0.0007; in [8] it was -0.0003; in [9] it was -0.0005.

B30: … (Pf SSP2 157) (peptide)
peptide: VVILTDGIPDSIQDS
modifications: not checked
Regarding B30, the binding affinity ratio (IC50 of standard peptide / IC50 of test peptide) is -0.0003 in assay [6], 0.0001 in [7], -0.0003 in [8] and 0.0114 in [9].

B31: … (peptide)
peptide: AGGLALLACAGLAYK
modifications: not checked
Consider B31, for which the results for the binding affinity ratio (IC50 of standard peptide / IC50 of test peptide) in assay [13] and in assay [14] were -0.0007 and -0.0002, respectively.

The values above are taken from patent publication US9266930.
